Laboratory results: US20240174744A1 (SCIRHOM, published 2024)
Positions count from the first letter of the chain named.

T1: miR2-FL-WT-T7 (mouse iRhom2 full length wild type C-terminally tagged with 3 consecutive copies of the T7 … (mouse, UniProt Q80WQ6 1-827))
T1 construct: also called mouse iRhom2 variant expressed by MEF-DKO-miR2-FL-WT-T7 cells
T1 sequence: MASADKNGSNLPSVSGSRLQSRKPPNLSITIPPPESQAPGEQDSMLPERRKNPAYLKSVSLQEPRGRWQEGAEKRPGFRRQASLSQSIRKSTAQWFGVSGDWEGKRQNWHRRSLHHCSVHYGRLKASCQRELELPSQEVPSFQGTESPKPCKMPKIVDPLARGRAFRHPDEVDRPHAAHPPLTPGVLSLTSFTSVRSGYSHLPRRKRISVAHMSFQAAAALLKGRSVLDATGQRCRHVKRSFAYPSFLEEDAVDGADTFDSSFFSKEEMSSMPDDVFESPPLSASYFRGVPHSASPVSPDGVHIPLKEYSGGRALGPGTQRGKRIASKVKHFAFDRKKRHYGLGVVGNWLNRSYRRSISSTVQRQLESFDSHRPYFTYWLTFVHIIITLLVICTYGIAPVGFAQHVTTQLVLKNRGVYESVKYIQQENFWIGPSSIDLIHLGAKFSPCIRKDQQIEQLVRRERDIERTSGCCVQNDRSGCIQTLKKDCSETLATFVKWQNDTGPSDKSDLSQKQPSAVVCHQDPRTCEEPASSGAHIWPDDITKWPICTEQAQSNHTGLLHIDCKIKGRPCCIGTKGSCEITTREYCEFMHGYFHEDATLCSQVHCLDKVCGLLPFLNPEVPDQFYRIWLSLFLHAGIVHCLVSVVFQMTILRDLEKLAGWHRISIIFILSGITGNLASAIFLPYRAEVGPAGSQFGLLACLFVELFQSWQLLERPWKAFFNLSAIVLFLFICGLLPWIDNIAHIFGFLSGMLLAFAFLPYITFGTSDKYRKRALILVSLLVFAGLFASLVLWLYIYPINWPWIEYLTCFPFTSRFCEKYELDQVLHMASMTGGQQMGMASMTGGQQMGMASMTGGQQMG

B1: antibody 16 (antibody, V domains shown)
VH: QVTLKESGPGILQPSQTLSLTCSFSGFSLSTFALGVGWIRQPSGRGLEWLAHIWWDDDKYYNPALKSRLTISKDTSKNHVFLKIANVDTADTATYYCARITTYYYGMDYWGQGTSVTVSS
VL: DIVLSQSPATLSVTPGDSVSLFCRASQSIGNHLHWYQQESHASPRLLIKYASQSISGIPSRFSGSGSGTDFTLSINSVETEDFGMYFCQQSYNWPLTFGAGTKLELK
notes: Mouse IgG, kappa light chain; also called clone #16; m16
B2: antibody 50 (antibody, V domains shown)
VH: QVQLQQSGAELVRPGASVKVSCKASGYAFSNYLIEWVKQRPGQGLEWIGVINPGSGFTKYNEKFKGKATLTADKSSSTAYMQLSSLTSEDSAVYFCARGLYRAMDYWGQGTSVTVSS
VL: DIQMTQSPASQSASLGESVTITCLASQTIGTWLAWYQQKPGKSPQLLIYAAASLADGVPSRFSGGGSGTKFSFKISSLQAEDFVNYYCQQIYSTPYTFGGGTKLEIK
notes: Mouse IgG, kappa light chain; also called clone #50; purified antibody 50
B3: antibody 43 (antibody, V domains shown)
VH: QVALKESGPGILQPSQTLSLTCSFSGFSLSTFGMGVGWIRQSSGKGLEWLANIWWDDDKYYNPALKSRLTISKDASKNQAFLKIANVDTADTATYYCARIGNYGSNYWYFDVWGTGTTVTVSS
VL: QIVLTQSPAIMSASPGERVTMTCSANSRISYMYWYQQKPGSSPRLLIYDTSNLASGVPVRFSGSGSGTSYSLTISRMEAEDAATYNCQQWSSYPLTFGAGTKLELK
notes: Mouse IgG, kappa light chain; also called clone #43
B4: antibody 5 (antibody, V domains shown)
VH: B3 VH with A3T, S42P, N52H, D58E, P63S, D74A, A75T, G101S, D111N
VL: QVVLTQSPALMSASPGEKVTMTCSAGSSVSCMYWYQQKPGSSPRVLIYDTSNLASGVPARFTGSGSGTSYSLTISRMEAEDAASYYCQQWNSYPLTFGAGTKLELK
notes: Mouse IgG, kappa light chain; also called clone #5; purified antibody 5
B5: antibody 44 (antibody, V domains shown)
VH: B3 VH with A3T, S42P, G44E, N52H, A75T, A80I, A85T, D91E, A98S
VL: QIVLTQSPAVMSASPGEKVTMTCTASSSVYYMYWYQQTPGSSPRLLIYDTSNLASGVPVRFSGSGSGTSYSLTISRMEAEDAATYYCQQWNTYPLTFGAGTKLELK
notes: Mouse IgG, kappa light chain; also called clone #44; m44
B6: antibody 42 (antibody, V domains shown)
VH: B3 VH with A3T, F24L, M34R, S42P, N52H, D58E, A75T, A80V, K83R, G101Q
VL: B3 VL with Q1L, R18K, S24G, N26T, Y33F, L45V, M77V, A82V, N86Y, S91N
notes: Mouse IgG, kappa light chain; also called clone #42; m42
B7: antibody 22 (antibody, V domains shown)
VH: B3 VH with A3T, S42P, N52H, D58E, P63S, D74A, A75T, A80V, G101S, D111N
VL: B4 VL with C31Y, S84T
notes: Mouse IgG, kappa light chain; also called clone #22; m22
B8: antibody 34 (antibody, V domains shown)
VH: QVTLKESGPGILQPSQTLSLTCSFSGFSLSTFSLGVGWIRQSSGKGLEWLAHIWWDDEKYYNPALKSRLTISKDTSKNQVFLKIANVDAADTATYYCARAYYSKSYYALDYWGQGTSVTVSS
VL: DIQMTQSPSSLSASLGERVSLTCRASQEISGYLSWLQQKPDGTIKRLIYAASTLDSGVPKRFSGSRSGSDYSLAISSLESEDFADYYCLQYANFPFTFGSGTKLEIK
notes: Mouse IgG, kappa light chain; also called clone #34; m34

The binders below were run against T1, miR2-FL-WT-T7 (mouse iRhom2 full length …) (assay: FACS on cells of the row mouse iR2 wild type).

| Binder | binding result |
| --- | --- |
| B1 | no binding (tested: 3 µg/ml) |
| B2 | no binding (tested: 3 µg/ml) |
| B3 | no binding (tested: 3 µg/ml) |
| B4 | no binding (tested: 3 µg/ml) |
| B5 | no binding (tested: 3 µg/ml) |
| B6 | no binding (tested: 3 µg/ml) |
| B7 | no binding (tested: 3 µg/ml) |
| B8 | no binding (tested: 3 µg/ml) |
